Consider 2 molecules from paper PMC6174329, “Functional Characterization of Arabidopsis PHL4 in Plant Response to Phosphate Starvation”.

Series [1] deals with T1, MBP-PHL4-His (Arabidopsis thaliana? (Columbia-0?), UniProt Q8GXC2 1-397).
T1 sequence: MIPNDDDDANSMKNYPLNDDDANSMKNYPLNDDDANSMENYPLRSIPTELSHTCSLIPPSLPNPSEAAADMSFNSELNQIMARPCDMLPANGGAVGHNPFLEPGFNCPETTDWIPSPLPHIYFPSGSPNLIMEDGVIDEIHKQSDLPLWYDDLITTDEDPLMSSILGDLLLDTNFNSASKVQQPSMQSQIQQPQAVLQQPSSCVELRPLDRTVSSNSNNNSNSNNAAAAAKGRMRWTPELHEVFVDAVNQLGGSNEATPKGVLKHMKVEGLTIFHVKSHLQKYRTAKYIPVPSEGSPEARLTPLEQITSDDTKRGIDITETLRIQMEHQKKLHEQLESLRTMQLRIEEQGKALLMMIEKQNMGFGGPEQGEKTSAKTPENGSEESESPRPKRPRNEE
Description: EMSA; 4 ug protein, 10 fmol probe; EMSA as described by Sun et al. (2016); buffer, salt, pH and temperature not given; 4 ug MBP-PHL4, 10 fmol biotin probe. The conditions noted are these: protein: recombinant; tags: N-terminal MBP; C-terminal 6xHis; chain copies: 2; label: biotin (on F strand); blunt.

The target of series [2] is T1, MBP-PHL4-His. Kind of series: competition; unlabeled probe at 200:1, 800:1 and 1200:1 molar excess over labeled probe; EMSA as described by Sun et al. (2016); buffer, salt, pH and temperature not given; 4 ug MBP-PHL4, 10 fmol biotin probe. Particulars: protein: recombinant; tags: N-terminal MBP; C-terminal 6xHis; chain copies: 2; blunt.

B1: 2xP1BS probe (dsDNA)
DNA 1: ATTAACGAATATTCCGTACAATTAACGAATATTCCGTACA
DNA 2: TGTACGGAATATTCGTTAATTGTACGGAATATTCGTTAAT
Take B1: the binding result in series [1] is given as “binds”.

B2: 2xP1BS unlabeled competitor (dsDNA)
DNA 1: ATTAACGAATATTCCGTACAATTAACGAATATTCCGTACA
DNA 2: TGTACGGAATATTCGTTAATTGTACGGAATATTCGTTAAT
As to B2, the binding result in series [2] is recorded as “binds”.
